Test results taken from the DeepSol protein solubility set.

assay: soluble on expression in E. coli; label from the status in PepcDB or PDB records

Sequence	soluble on expression in E. coli
MTVGYGFSASGDYSQSKIRADHASVTEQSGIYAGEDGYQIKVRDNTDLKGGIITSSQSAEDKGKNLFQTATLTHSDIQNHSRYEGKSFGIGGSFDLNGGWDGTVTDKQGRPTDRISLAAGYGSDSDSQSSITKSGINTRNIHITDEAGQLARTGRTAKETEARIYTGIDTETADQHSGRLKNSFDKDAVAKEINLQREVTKEFGRNATQAVAAVADKLGNTQSYERYQEARTLLEAELQNTDSEAEKAAFRASLGQVNAYLAENQSRYDTWKEGGIGRSILHGAGRQSAMRRAGMSVRRQ	not soluble
MTVISSHWWRCISLNSKSNRCSSSSGNHLMMGGKKTCVLMRATFMVIATDYEFERRWCRRTGTIAGCHLISKQAEVGEMMCMIEL	not soluble
MTVNAKTSPSAGNTWRDLPAAQQPEYPDTEALRAVIADLESYPPLVFAGECDQLRARMAAVAKGEAFLLQGGDCAEAFDAVSADHIRNKLKTLLQMGAVLTYAASVPVVKVGRIAGQYSKPRSKPTETRDGVTLPTYRGDSVNGFDFTEAARIPDPERLKRMYHASASTLNLVRAFTTGGYADLRQVHAWNQDFVKSSPSGQRYEQLAREIDNALNFMRACGTDPAEFQTVEFFSSHEALLLDYESALTRVDSRTGQLYDVSGHMVWIGERTRQLDHAHIEFASRIRNPIGIKLGPSTTAEEALQYIERLDPEREPGRLTFIVRMGADKIRDKLPELVEKVTASGATVAWITDPMHGNTYEAASGHKTRRFDDVLDEVKGFFEVHKSLGTHPGGIHVELTGDDVTECVGGGDEIFVDDLHQRYETACDPRLNRSQSLDLAFLVAEMYRDQ	not soluble
MTVPEEAQTLIGKHYRAPDHFLVGREKIREFAVAVKDDHPTHYSEPDAAAAGYPALVAPLTFLAIAGRRVQLEIFTKFNIPINIARVFHRDQKFRFHRPILANDKLYFDTYLDSVIESHGTVLAEIRSEVTDAEGKPVVTSVVTMLGEAAHHEADADATVAAIASILEHHHHHH	soluble
MTVSREVELEGHIIDSGMMQSCFGIIMDLGGSFSVQKFDIGRHKDEESYARMLVEADDEAQLQSIVHELHQHGVNPSDPKDATLVPAPDDQVVPHGFYSTTNHPLEHHHHHH	not soluble
MTVTNMTEWFAKGVEALHHDHVYLARACFEQAVTEQRSPLSSSYLALCQAKTRGTFSDAIASAREAVAADPANPALYHNLGCIYLLAGKRTEAIETFRQGLEHHHHHH	not soluble
MTVYHFVGIKGTGMSSLAQILHDMKHTVQGSDYEKRFFTQTALEKRNISILPFDKSNVKEGQVIIAGNAFPDTHEEIVAAKELNIPVHRYHHFLGDLMNQYTSVAVTGAHGKTSTTGLLAHVMQGAHPTSYLIGDGTGHGVENSKYFVFEACEYRRHFLSYNPDYAIMTNIDFDHPDYFTDINDVFSAFQEMALQVKKGIIACGDDEELQKIQAKVPVIFYGFGEDNDFQARNIQKRTDGTIFDVFVRNTYYDTFKITGYGNHSVLNALAVIALCHYENVDVEAVKHQLTTFEGVKRRFNEKPMGEQVIIDDYAHHPTEINATIEAARQKHPEREIVAVFQPHTFSRTEKFLDEFAESLSKADQVYLCDIFGSARENKGELTIEDLQKRIDGAELITDTTTDVLKKHKNGVLIFMGAGDIQKFEAAYVKEVQVAEK	not soluble
MTYELCLEYGTYPLSRVDAYWGEDQNPPTFIQEDRLLCHKLETMNHLFHDLFVTIESQFHYVGFNMPEKRAQIRILYQEVATILKSKYKDYPIKIETFLL	not soluble
MVALFPSSPAEDLLAEGPCVMTGKGLHQLLLDRWGYSYGLQLRRTQGKIFLQIMWKYLEQASFPMDEGEYFSHLNEVASYLVALGAAEAIAQTIRETREKPRLGKAVSIPIELGARASEWFPDLEHHHHHH	soluble
MVAVPEGYESLLERPLYGHLATVRPDGTPQVNAMWFAWDGEVLRFTHTTKRQKYRNIKANPAVAMSVIDPDNPYRYLEVRGLVEDIVPDPTGAFYLKLNDRYDGPLTEPPADKADRVIIVVRPTAFSKQVA	soluble
MVAVSFGAAFRETLEGSGNPQDEFEKLEFEEAYWPELYTTRGPEDDEIYQPFIGPWDYETDLPELHETQGPEDNEVYQPFPGPCFP	not soluble
MVCLQRICYEKIFLKKKIIATGTIWMSNMQQINNASVRPVSAYNTKHLQIPAIALLQSSPLPEQAIRTFSRALLTPTNHLFVNGRYIRTGLISGFDSRKLSFFQRIYLFLKSRFFTENKSVKISAVWAHDSWSNNYFHWFNDTLPRLFLLSKQIEDSVAVLPVELSKITFIVESLELLKIEHQWIDQKKSHRFESLSVLHTATLQPDINPLLQKQMRDAVFSAMKIDPQERPFRKIYISRAHARYRKIINEQELLPVLKKYGYDIIYPETYSFKEQVKLFAESNALISIHGAGHTNCMFMKQDAKVMEIRNTEWESQPLCFWGLANIFELKWEYITATRVSEVSNFNDVFIAPHIFEESLRTFENIKLEHHHHHH	not soluble
MVDFYYLPGSSPCRSVIMTAKAVGVELNKKLLNLQAGEHLKPEFLKINPQHTIPTLVDNGFALWESRAIQVYLVEKYGKTDSLYPKCPKKRAVINQRLYFDMGTLYQSFANYYYPQVFAKAPADPEAFKKIEAAFEFLNTFLEGQDYAAGDSLTVADIALVATVSTFEVAKFEISKYANVNRWYENAKKVTPGWEENWAGCLEFKKYFE	soluble
MVDYDKQMKTWIRSQHLICVGSDFIFETVDQTQLDKFETCIRGMGGRIRTVKAVGNWPMGPRRSFKILQATASVPRPGGEALVTYWAKKGSKTTRYSEISS	soluble
MVESENKDIEESGAEVDRRDVRSLVRKLSDNNWEIPKGHIPNMRVPGRLFVSEKLLEGIEPGTIDQIANVATLPGIQKYSMAMPDAHLGYGFAIGGVAAFDVEEGVISPGGVGFDINCGVRLIRTNLQKEDVVPHIKRLTDELFSNVPSGVGSKSRFKASDKELDSAFLEGAKWAVDAGYGVEADVEHCEGNGFLEGADTSHVSSKARNRGKPQLGTLGSGNHFLEVQYVDEIYDPEVASAFGLEEGQVTVMVHCGSRGAGHQICTDHLKELSQAVKRYGIEIPDKQLACAPAQSKEAQNYFKAMLCAANYAWANRQMITHWTRESFEKIFGRDADDMEMSLLYDVAHNVAKLEEHSIEGRKKEVYVHRKGATRAFPAGHPEVPSAYRDVGQPVLIPGSMGTPSFILCGSTESMDVSFGSACHGAGRVMSRAHAKKEFHGQSIKEDLEAHGITVRATHPSVIAEEAPGVYKSSSEVVNVVHELGIARKVARVIPLGVAKGLEHHHHHH	not soluble
MVESTTTIYDVARVAGVSMATVSRVVNGNANVKEKTRQKVLEAIAELDYRPNAVARGLASKRTTTVGVILPTITSTYFAAITRGVDDIASMYKYNMILANSDNDVEKEEKVLETFLSKQVDGIVYMGSSLDEKIRTSLKNSRTPVVLVGTIDGDKEIPSVNIDYHLAAYQSTKKLIDSGNKKIAYIMGSLKDVENTERMVGYQEALLEANIEFDENLVFEGNYSYEQGKALAERLLERGATSAVVSHDTVAVGLLSAMMDKGVKVPEDFEIISGANSPITQYTYPTLTSVNQPLYDLGAVAMRLLTKLMLKEDVEQNQLVLDHEIFSRRSTK	soluble
MVEVLTLGVIQTTLDSTAAWNTDSGEPKISASEDSRAWYEIRRAMRALADHEDQPRIILLPELALPRTRLDDFERLVCSMNALAIVGVDYRLNHRTKSAKNEGLVLVPRNFWKRTPSRYAARVWFGKRDPAPAEASGFKEYMPPWAFHSDPNVYVFDAGPYGRIGVSICYDFMDIERALLYRGRVHHLFVIAYNRDVKLFESLAVSLSRTAFCNVVVCNTGYFGGSLVVSPYYEAFKRIGYSVDGGKVFTAQCVPLPVRDLDAAIHGFDTKPNATYKHLPPGFTTSMDHTAALPEGPSAVAIPLFTSDLEHHHHHH	not soluble
MVFKIKDEWGEFLVRLARRAIEEYLKTGKEIEPPKDTPPELWEKMGVFVTLNRYNVPPQTALRGCIGFPTPIYPLVEATIKAAIYSAVDDPRFPPVKLEEMDNLVVEVSVLTPPELIEGPPEERPRKIKVGRDGLIVEKGIYSGLLLPQVPVEWGWDEEEFLAETCWKAGLPPDCWLDEDTKVYKFTAEIFEEEYPRGPIKRKPLVLEHHHHHH	soluble
MVFLDPIHRIDVVTLSELSRLGFRRSGDFVYRPECHLCRQCLSCRVPVADFQMNSMQKKAWKRNQDLTMTVLPTRQASQIHYDLYERYINERHADGDMFPPSLDQFEKFLVHSCTDSFFLELWKDNRLISVSTCDLMDDGLSAVYTFFDPDEHRRSLGVYSILNQIEYVKTLGLEYVYLGYWVPHSAKMNYKSQYTPLELLLDGQWRRLNRSLSPEEINQLGNSLMTTLPSEWNNLIIKLEHHHHHH	not soluble
MVFVKTLHRTLFLEVAANEDVLSIKQKIEAAEGIPAEEQRLCYAGRQLEDSDCGIDSEATIYVNLELLGGAKKRKKKVYTTPKKNKRKPKKVKLAVLKYYKIDENGKITRLRKECQQPSCGGGVFMAQHANRHYCGRCHDTLVVDTATAAATSGEKGGKKGKK	not soluble
MVGSLNCIVAVSQNMGIGKNGDLPWPPLRNEFRYFSRMTTTSSVEGKQNLVIMGKKTWFSIPEKFRPLKGRINLVLSRELKEPPQGAHFLSRSLDDALKLTEQPELANKVDMVWIVGGSSVYKEAMNHPGHLKLFVTRIMQDFESDTFFPEIDLEKYKLLPEYPGVLSDVQEEKGIKYKFEVYEKND	soluble
MVGVLFTFFAWCQRDRDVVGTPFVSIRGIFQADHRAWCENRRRELTKPDGWMSLIGLHWLGPKAHYIGSSPDNGIRLAMGPPDMGMIERDGDVVWFTPHAGVPLTVDGQPLRGRVRVFSDADLTPTTIGFDDGKGWLTLLRRGDRFALRVKHVNAPSRLHFTGLEYWPSDPEWRISARYLPNKAGATLSIFNIVGMTANVPNAGVIAFERLGHTYRLQAIRAAGQALFVMFADRTSGHGSYPAGRFLEVDAPDKQGSVVLDFNRAYNPPCAFTLFTTCLLPPSENRLNLAVTAGEKAYHVSTVLPLEHHHHHH	not soluble
MVGVMSNSSALSREFVKIEIGGKVIKGNSKVENSGDYFDGHCPQAFHAFSGIDGTVFDLINLKLRVTKHIQDLLENFFKRGEKEVKIEILRRESTKSGSAYSSFKVVYQGCRMHNMLLAHDNDSNLILELSFTPEESVSIEMNIPSDDGKSTEKLGPMTYNLYKEALV	not soluble
MVHHKLKNDPSGHDWFHIVRVRNLAVELAHKEGANTFICQMAALLHDIIDDKICQDSKQASYELTQWLYSQDLAIAEVEHILDILENISFKAGTGLTMKTLEGQIVQDADRLDAMGAIGIARTMAYSGSKGRLIHDPNLKPRENLTLEEYRNGQDTAIIHFYEKLLKLKDLMNTKQGKMLAQKRHDFLELYLAEFYAEWNGKRLEHHHHHH	not soluble
MVHSTDSFDFLGWNFVVKPNGKFISTPSQKATSSIKAKVKEVMKDSCFTLEERIDKCGAIVRGWRNYHRFCDMSQHNLWAIAYWTWKFIRKQGRYNRDQTNQVIHRAFPAVKWAACRFNNVTEDKSPLEHHHHHH	not soluble
MVIMAGKAVRTEQVSATRQLILTTAERLFAEHGVYAVSNRQVSEAAGQGNNAAVGYHFGTKTDLVRAIAQRHSERVEELRARQLAALGDSPDLRDWVDCLVRPQFDHLAALGSPTWYARFCAQVMTDPALRQIMTEESRASVSLRAIIVGRNRCMPALPDEVRAERGDMARHLIVHTAEERERALAENRPTPRASWQDAADGLVDAIVGMWLAPVTPRGGG	not soluble
